This is an account of results in patent US20190153112A1 (IMMUTEP S A S, published 2019).

One may read the Kd as the equilibrium constant for the complex coming apart. A word on the koff: it is a measure of how fast the partners let go of each other. As a reminder, the kon is the rate constant with which the complex forms.

In this test the target is T1, IMP321 (recombinant soluble human LAG-3Ig fusion protein) (human, UniProt P18627 23-450).
T1 construct: extracellular domain; also called sLAG-3Ig; LC1
T1 sequence (looked up): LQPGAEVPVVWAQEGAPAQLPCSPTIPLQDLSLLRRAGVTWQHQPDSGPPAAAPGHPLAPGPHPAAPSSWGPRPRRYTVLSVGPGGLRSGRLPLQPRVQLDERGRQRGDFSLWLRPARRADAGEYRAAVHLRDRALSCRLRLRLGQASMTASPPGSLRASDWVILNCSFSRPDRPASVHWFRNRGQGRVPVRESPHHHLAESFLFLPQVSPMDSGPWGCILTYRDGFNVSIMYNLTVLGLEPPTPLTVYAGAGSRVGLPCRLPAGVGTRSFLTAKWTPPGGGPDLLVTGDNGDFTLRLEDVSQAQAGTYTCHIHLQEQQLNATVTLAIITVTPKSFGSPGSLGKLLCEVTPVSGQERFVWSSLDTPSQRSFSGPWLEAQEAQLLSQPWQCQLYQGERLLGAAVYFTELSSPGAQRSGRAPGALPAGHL
The test can be described thus: Biacore T200 SPR, antibody immobilized on C1 chip, IMP321 0.078-2.5 nM as analyte, 25 °C, 1:1 fit, average of three runs. As for the experimental part:
A Biacore™ surface plasmon resonance analysis was performed using the chimeric antibody Chim13E2IgG4 (comprising the chimeric heavy chain 13E2IgG4mut, and the chimeric light chain 13E2IgK, described in Example 17), or the humanized 13E2 antibody (IMP761) described in Example 18, covalently immobilized to a C1 sensor chip. The coating was performed in 10 mM sodium acetate, pH 5.0, to reach 13±1 RU. The recombinant human LAG-3Ig protein (IMP321) was then passed over the captured antibodies at 6 different concentrations, ranging from 0.078-2.5 nM, in analysis buffer (10 mM HEPES pH 7.4, 150 mM NaCl, 3 mM EDTA, 0.05% Tween 20) at 25° C., with regeneration in every cycle. The analysis was carried out on Biacore™ T200 and the data was fitted using the kinetic global fit (Langmuir 1:1) model. The kinetics parameters are recorded in Table 29, and represent the average of three runs.
(In general: SPR reads the build-up and loss of mass on a sensor chip optically.)

B1: chimeric 13E2-human IgG4 antibody Chim13E2IgG4 (antibody, V domains shown)
VH: QVTLKESGPGILQPSQTLSLTCSFSGFSLSTSGMGLGWIRQPSGKGLEWLTHIWWDDIKRYNPDLRSRLTISKDTSSSQIFLKIASVDTADTATYYCARIVEGSYSSSYFDVWGAGTTVTVSS
VL: DIVMTQPHKFMSTSVEDRVTITCKASQDVIFDVAWYQQKPGQSPKLLIYSASSRVSGVPDRFTGSGSGTDFTFTISSVQAEDLAVYYCQQHYSTPYTFGGGTTLEIKR
notes: The light chain is the 13E2 VL with wild-type human kappa; also called chimeric 13E2 IgG4; heavy chain 13E2IgG4mut
As to B1, the dissociation constant Kd was 0.0219 nM, the off-rate (koff) was determined as 0.00064 s⁻¹ and the kon stood at 2.9e+07 M⁻¹ s⁻¹.

B2: humanized 13E2 monoclonal antibody IMP761 (antibody, human IgG4 S228P, kappa, V domains shown)
VH: QITLKESGPTLVKPTQTLTLTCTFSGFSLSTSGMGLGWIRQPPGKTLEWLTHIWWDDIKRYNPDLRSRLSITKDTSKNQVVLTMTNMDPLDTGTYYCARIVEGSYSSSYFDVWGQGTLVTVSS
VL: DIVMTQTPSSLSASVGDRVTITCKASQDVIFDVAWYQQRPGQAPKLLIYSASSRVSGVPSRFSGSGSGTDFTLTISSLQPEDFATYYCQQHYSTPYTFGQGTRLDIKR
notes: Human IgG4 (S228P) with kappa light chain; also called humanized 13E2 IgG4; VH4/VL3
Consider B2, for which the Kd came to 0.0228 nM, the off-rate constant (koff) is 0.00066 s⁻¹ and the association rate constant (kon) was 2.9e+07 M⁻¹ s⁻¹.
